According to PMC9325769 (Nature Communications, 2022):

Tests used:
[1] = molecular target: pHipTLp (HipTLp, Lpg2370) (Legionella pneumophila, UniProt Q5ZSZ6); assay: biochemical
[2] = molecular target: co-expressed 6×His-tagged Lpg2369–Lpg2370 (HipTLp–HipSLp) complex (Legionella pneumophila) (UniProt Q5ZSZ7); assay: ITC
[3] = molecular target: HipTLp (Lpg2370), 6×His-tagged, expressed alone (autophosphorylated, pHipTLp) (Legionella pneumophila) (UniProt Q5ZSZ6); assay: ITC

Molecule Nc1ncnc2c1ncn2[C@@H]1O[C@H](COP(=O)(O)OP(=O)(O)NP(=O)(O)O)[C@@H](O)[C@H]1O [AMP–PNP] has a Kd [1] of about 70 µM.

In the case of “HipBLp (Lpg2368) (from UniProt Q5ZSZ8 1-75) (natural protein)”, the Kd [2] is reported as 1.5 µM.

“HipSLp (Lpg2369), untagged wild type (6×His-tag cleaved with TEV protease) (from UniProt Q5ZSZ7 1-102) (natural protein)” gave a Kd [3] of 0.042 µM.
